Experiment: yeast display, Sf9 membrane polyspecificity reagent, FACS + sequencing; frameworks hold sequencing errors
Procedure, shortened: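 Polyreactivity labels are assigned by the sorting gate from which each nanobody was recovered. The gates were low and high (top ~1%), set on anti-HA fluorescence for expression and streptavidin fluorescence for reagent binding. Before sorting, galactose-induced (36–48 hours) yeast display cells were stained for 1 hour at 4 °C with 10% biotinylated, detergent-solubilized Sf9 membrane reagent.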

Sequence	polyreactivity (PSR sort gate)
QVQLVESGGGLVQAGGSLRLSCAASGFTFSPYTMGWSRQAPGKERELVATIRYDGTSTYYADSVKGRFTISRDNAKNTVYLQMNSLKREDTAVYYCAAEIWRVYSTFYYWGQGTQVSVSS	low polyreactivity
QIQLVESGGGLVQAGGSLRLSCAASGSTLPDYAMGWYRQAPGKERELVADITARGGTYYADSVKGRFTISRDNAKNTVYLQMNSLKPEDTAVYYCAARISGRWYEYWGQGTQVTVSS	high polyreactivity
QVQLVESGGGLVQAGGSLRLSCAASGSTFTLYAMGWYRQAPGKERELVATITGSGGSTNYADSVKGRFTISRDNAKNTVYLQMNSLKPEDTAVYYCAADYAVYSFTEFNYWGHGTQVTVSS	high polyreactivity
QVQLVESGGGLVQAGGSLRLSCAASGSIFVGYAMGWYRQAPGKERELVAAIRSGGSTKYADSVKGRFTISRDNAKNTVYLQMNSLKAEDTAVYYCNVEVHPYYWVDNFHRFPVLHNYWGQGTQVTVSS	low polyreactivity
QVQLVESGGGLVQAGGSLRFSCAASGSIFSSYAMGWYRQAPGKERELVAAISSSGDSTYADSVKGRFTISRDNAKNTVYLQMNSLKPEDTAVYYCAVGGAGSDDYWGQGTQVTVSS	low polyreactivity
QVQLVESGGGLVQAGGSLRLSCAASGRIFRYYAMGWSRQAPGKERELVAAITSDGRTYYADSVKGRVTISRDNAKNTVYLQMNSLKPEDTAVYYCAADHHSYRYGGYYYWGQGTQVTVAS	low polyreactivity
QVQLVESGGGLVQAGASLRLSCAASGRTFAYYAMGWYRQAPGKERELVATITSSVGRTYYADSVKGRFTISRDNAKNTVYLQINSLKPEDTAVYYCNASDWGRTRGGGYPWLYRYDYWGQGTQVTVSS	low polyreactivity
QVQLVESGGGLVQAGGSLRLSCAASGFIFSLNAMGWYRQAPGKEREFVASITWSGTRTYYADSVKGRFTISRDNAKNTVYLQMNSLKPEDTAVYYCAARTKRSYEYQAFYYWGQGTQVTVSS	high polyreactivity
QVQLVESRGGLVQAGGSLPLSCAASGFIFTSYAMGWYRQAHGKEREFVAAISGSGGSTYYADSVKGRFTISRDNAKNTVYLQMNSLKPEDTAVYYCAAESWVGYYLYWYDYWGQGTQVTVSS	high polyreactivity
QVQLVESGGGLVQAGGSLRLSCAASGFTFTRYAKGWYRQAPGKERELVAAISQNGGSTYYADSVKGRFTISRDNAKNTVYLQMNSLKPEDTAVYYCYAGVRRTIAFDYWGQGTQVTVSS	high polyreactivity
QVQLVESGGGLVQAGGSLRLSCAASGSTFFHYPMGWYIQATGKERELVAAISWSGGRTSYADSVKGRFTISRDNAKNTVYLQKNSLKPEDTAVYYCAARGRYKDVYRMDYWGQGTQVTVSS	high polyreactivity
QVQQQESGGGLVQAGGSLRLSCAASGTIFQLTVMGRYRQAPGKERELVASIDYGGNTNYADSVKGRFTISRDNAKNTVYLQMNSLKPEDTAVYYCAASSDSWTTHPYWGQGTQVTVSS	low polyreactivity
QVQLVESGGGLVQAGGSLRLSCAASGRIFRSYAMGWYRQAPGKERELVAAITKSGGGTYYADTVKGRFTISRDNAKNTVYLQMNSMKPEDTAVYYCGARGHCGYYYWGQGTQVTVSS	high polyreactivity
QVQLVESGGGLVQAGGSLRLSCAASGRNFSDYAMGWSRQAPGKERELVATITSGDSTNYADSVKGRFTISRDNAKNTVYLQMNSLKPEDTAVYYCNADRFADYDYWGQGTQVTVSS	low polyreactivity
QVQLVESGGGLVQAGGSLRLSCAASGYILQINAMGWYRQAPGKERELVSAISISGGNTYYADSVKGRFTISRDNAKNNVYLQMNSLKPEDTAVYYCAAYRYYSYLVRYGLLLAYYYWGQGTQVTVSS	low polyreactivity
QVQLVESGGGLVQAGGSLRLSCAASGRTFSVYTMGWYRQAPGKERELVAVISSGGGTDYADSVKGRFTISRDNAKNTVYLQMNSLKPEDTAVYYCAAELRYYLYDVVYIVTYDYWGQGTQVTVSS	low polyreactivity

Sequence	polyreactivity (PSR sort gate)
QVQLVESGGGLVQAGGSLRLSCAASGRIFGRNTMGWYRQAAGKERELVASITFGGVSTYYADSVKGRFTISRDTEKNTVYLQMNSLKPEDTEVYYCAAVLINYEGYDSWGQGTQVTVSS	low polyreactivity
QVQLVESGGGLVQAGGSLRLSCAASGFTFIRYAMGCYRQAPGKERELVAAIRGTGTSTYYADSVKGRFTISRDNAKNTVYLQMNSLKPEDTAVYYCNKVAGRSPYTRYDYWGQGTQVTVSS	low polyreactivity
QGQLVESGGGLVQAGGRLRLSCAASGFIFCIYAMAWYRTATGKQREFVAVSTYRGDTKYYADSVKGRFTISRDNAKNTVYLQMNSLKAEDTAVYSCAAYTVQKYGYWGQGTQVTVSS	low polyreactivity
QVQLVESGGGLVQAGGSLRLSCAASGYTFSRYAMGWYRQAPGKERELVADISRSGGSTDYADSVKGRFTISRDNAKNTVYLQMNSLKPEETAVYYCAKGSWWGYYSYGFDYWGQGTQVTVSS	high polyreactivity
QVQLVDSGGGLVQAGGSLRLSCAASGYTFVPYAMGWYRQAPGKERELVAAISSSGGDTYYADSVKGRFTISRDNAKTTVYLQLNSLKPEDTAVYYCNTGVYVWQYWYYGFDYWGQGTQVTVSS	low polyreactivity
QVQLVESGGGLVQAGGPLRLSCAASGRIFWPYTMGWYRQTPGKERELVAVITYSGGSTYYADSVKGRFTISRDNAKNTVYFQMNSLKPEDTAVYYCNAGIRFYLHAHGYYWGQGTQVTVSS	high polyreactivity
QVQLVESGVGLVQARGSLRLSSAASGRIFDRNAMGWYRQSPGNERELVAAIDDSGGDTSYADSVKGRFTISRDNAKNTVYLQMTSLKPEDTAVYYCNAVKQRSSIFDYWGQGTQLTVSS	low polyreactivity
KVQLVESGVGLDQAGGSHRLSCDASGYIFDDYAMGWYRKAPGKERELVAAISSSGTSTNYADSVKVRFTISRDNAKNTVYLQMNSLKPEDTAVYYCAARSAILKSGYLMDYWGLGTQVTVSS	low polyreactivity
QVQLVESGGGLVQAGGSLRLSCAASGTFTSNAMGWYRQAPGKERELVAVITGGGRTNYADSVKGRFTISRDNAKNTVYLQMNSLKPEDTAVYYCAAEVYLPYYERYDYWGQGTQVTVSS	low polyreactivity
QVQLVESGGGLVQAGGSLRLSCAASGTIFYDNDMGWYRQAPGKERELVAAISWSASDTYYADSVKGRFTISRDNAKNTVYLHINILKPEDTAVYYCNAEVYVWYFVYSALDYWGLGTQVTVSS	low polyreactivity
QVQLVESGGGLVQAGGSLRLSCAASGSTFVSYAMGGSRQAPGKERELVAAISRSGGSTYYADSVKGRFTISRDTAKNTVYLQMNSLKPEDTAGYYCAADGRGPSKRNRDYWGQGTQVTVSS	high polyreactivity
QVQLVESGGGLVQAGGSLRLSCAASGRIFTRNAMGWYRQAPGKEREFVAAISWSGGSTYYADSVKGRFTISRDNAKNTFYLQMNSLKPEDTAVYFCAAKNSGGYVSWYDYWGQGTQVTVSS	low polyreactivity
QVQLVESGGGLVQAGGSLRLSCASSGRTSLGYVMGWYRQAPGKERELVAAITKSGGSTYYADSVKGRFTISRDNAKNTVYLQMNSQKPEDTAVYYCAARNPWSARYEYWGQGTQVTVSS	high polyreactivity
QLQLVESGGGLVQAGGSLRLSCAASGNIFNYNAMGWYRQAPGKERELVAAISFSGGSTYYADSVKGRFTISRDNAQNTVYLQMNSLKPEDTAVYYCAKAERNYFEDWGQGTQVTVSS	high polyreactivity
QVQLVESGGGLVQAGGSLRLSCAASGGIFVYYAMGWYRQAPGKERELVAAISSGGTTNYADSVKGRFTISRDNAKNTVYLQMNSLKPEDTAVYYCAIYVSWPLYYYWGQGTQVTVSS	low polyreactivity
QVQLVESGGGLVQAGGSLRLSCAASGRIFGTYAMGWYRQAPGKERELVAAITQSGGSTYYADSVKGRFTISRDNAKNTVYLQMNSLKPEDTAVYYCKLVKTTSTLGKRRYDYWGQGTQVTVSS	high polyreactivity
